# Test: yeast display, Sf9 membrane polyspecificity reagent, FACS + sequencing; frameworks hold sequencing errors
# How it was run: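 A synthetic nanobody library was expressed on Saccharomyces cerevisiae BJ5465 by galactose induction for 36–48 hours. The library was stained for 1 hour at 4 °C with 10% biotinylated, detergent-solubilized Sf9 membrane reagent and enriched with streptavidin microbeads before FACS. Low and high (top ~1%) gates were set on anti-HA fluorescence for expression and streptavidin fluorescence for reagent binding, and each polyreactivity label reflects the gate of origin.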
row,Sequence,polyreactivity (PSR sort gate)
1,QVQLVESGGGLVQAGGSLRLSCAASGSTFISNAMGWYRQAPGKERELVAAITRRGGGTYYADSVKGRFTISRDNAMNTVYLQMNSLKPEDTAVYYCAARPWWRGYRFDYWGQGTQVTVSS,high polyreactivity
2,QVQLVESGGGLVQAGGSLRLSCAASGSTFISYAMGWSRQAPGKERELVAAISRNGGRTYYADSVKGRFTISRDNAKNTVYLQMNSLKPEDTAVYYCAAAYNSYRFDYWGQGTQVTVSS,high polyreactivity
3,QVQLVESGGGLVQAGGSLRLSCAASGSTFISYAMGWYRQAPGKEREWVAAISRRGDSTYYADSVKGRFTISRDNAKNTVYLQMKSLKPEDTAVYYCAADVSGDKGSIHMNYWGQGTQVTVSS,low polyreactivity
4,QVQLVESGGGLVQAGGSLRLSCAASGSTFITYAMGWYRQAPGKERELVAAIRFSGDTTYADSVKGRFTISRDNAKNTVNLQLNCLKPEDTAVYYCAVVLYRYDGRKYWRDYWGQGTQVTVSS,high polyreactivity
5,QVQLVESGGGLVQAGGSLRLSCAASGSTFIYNAMGWYRLAPGKEREFVAGITGSGGSTYYADSVKGRFTISRDNAKNTVYLQMNSLKPEDTAVNYCNADSPVVNYADLDYWGQGTQVSVSS,low polyreactivity
6,QVQLVESGGGLVQAGGSLRLSCAASGSTFIYYTMGWYRQAPGKERELVAAINGGGGSTYYADSVKGRFTISRDNAKNTVYLQMTSLKPEDTAVYYCATDPWHRAWGYGWGYNYWGQGTQVTVSS,low polyreactivity
7,QVQLVESGGGLVQAGGSLRLSCAASGSTFIYYTMVWYRQAPGKERELVAAIPSSGGSTYYADSVKGRFTISRDNAKNTVYLQMNSLKPEDNAVYYCAADGTYIKFAKLYRSYDYWGQVTQVTVSS,low polyreactivity
8,QVQLVESGGGLVQAGGSLRLSCAASGSTFKIYAMGWYRQAPGKERELVARITGRGGSTYYADSVKGRFTISRDNAKNTVYLQMNSLKPEDTAVYYCAREWYQYSPYHRFDYWGQGTQVTVSS,high polyreactivity
9,QVQLVESGGGLVQAGGSLRLSCAASGSTFKKYAMGWYRQAPGKERELVATISKNGGSTYYADSVNGRFTISRDNAKNTVYLQMNSLKPEDTAVYYCATRWWYYRTWYDYWGQGTQVTVSS,high polyreactivity
10,QVQLVESGGGLVQAGGSLRLSCAASGSTFKPNAMGWYRQAPGKERELVAAISGSGGSTYYADSVKGRFTISRDNAKNTVYLQMNSLKPEDTAVYYCAAYVYTIFSWYDYWGQGTQVTVSS,high polyreactivity
11,QVQLVESGGGLVQAGGSLRLSCAASGSTFKPYAMGWYRQAPGKERELVAAISKSGGSTRYADSVKGRFTISRDNAKNTVYLQMNSLKPEDTAVYYCAADYIYVKYEYWGQGTQVTVSS,high polyreactivity
12,QVQLVESGGGLVQAGGSLRLSCAASGSTFKPYAMGWYRQAPGKERELVAAISRGTRTYADSVKGRFTITRDNAKNTVYLQMNSLKPEDTAVYYCAAEWRWIFGYHYEYDYWGQGTQVTVSS,low polyreactivity
13,QVQLVESGGGLVQAGGSLRLSCAASGSTFKPYAMGWYRQAPGKERELVADISGRGGSTYYADSVKGRFTISRDNAKKTVYLQMNSLKPEDTAVFYCATYSSRQRKSSYYYWGQGTHVTVSS,high polyreactivity
14,QVQLVESGGGLVQAGGSLRLSCAASGSTFKRYAMGWYRQAPGKERELVAAISTRGSTYYADSVKGRFTISRDNAKNTVYFQMNSLKPEDTAVYYCIARQALVWKWYWYSPGYDYWGQGTQVTVSS,low polyreactivity
15,QVQLVESGGGLVQAGGSLRLSCAASGSTFKRYAMGWYRQAPGKEWELVAAISASGGSTSYADSVKGRFTISRDKAKNTVYLQMNSLIPEDTAVYYCARDRFRSRLDYWGQGTQVTVSS,high polyreactivity
16,QVQLVESGGGLVQAGGSLRLSCAASGSTFKSYTMGWYRQAPGKERELVAAISGSGGRTYYADSVKGRFTISRDNAKNTVYLQMNSLKPEDTAVYYCAATGPYGFYWGQGTQVTVSS,high polyreactivity
17,QVQLVESGGGLVQAGGSLRLSCAASGSTFKTYAMGWYRQAPGKEREFVASISGSGGSTRYADSVKGRFTISRDNAKNTVYLQMNSLKPEDTAVYYCAARLQKPTNGKGVYYWGQGTQVTVSS,high polyreactivity
18,QVQLVESGGGLVQAGGSLRLSCAASGSTFKVYAMGWYRQAPGKERELVATISKSGSTYADSVKGRFTISRDNAKNTVYLQMNCLKPEDTAVYYCAADLYTYPRTRRRAYGYWGQGTQVTVSS,high polyreactivity
19,QVQLVESGGGLVQAGGSLRLSCAASGSTFKWNAMGWYRQAPGKERELVAAINSGGSTYYADSVKGRFTISRDNAKNTVYLQMNSLKPEDTAVYYCAKKWAVRTPFRYGIRYDYWGQGTQVTVSS,low polyreactivity
20,QVQLVESGGGLVQAGGSLRLSCAASGSTFKWYAMGWYRQAPGKERELVAAINWSSGRTYYADSVKGRFTISRDNAKNTVYLQMNSLKPEDTAVYYCAAEAGYFSWRTMDYWGQGTQVTVSS,high polyreactivity
21,QVQLVESGGGLVQAGGSLRLSCAASGSTFKYYAMGWYRQAPGKERELVASISRGGSTNYADSVKGRFTISRDNAKNTVYLQMNSLKPEDTAVYYCAKRRAGTAYDYWGQGTQVTVSS,high polyreactivity
22,QVQLVESGGGLVQAGGSLRLSCAASGSTFLDNAMGWYIQAPGKERELVAAITQSGSSTYYPDSVKGRFTISRDTAKNTVYLQMNSLKPEATAVYYCAADVPNISFDYWGQGTQVTVSS,low polyreactivity

row,Sequence,polyreactivity (PSR sort gate)
1,QVQLVESGGGLVQAGGSLRLSCAASGSTFLDNAMGWYRQAPGKERELVAAISSDGSTYYANSVKGRFTISRDNAKNTVYIQMNSLKPEDTAVYYCAAEYRYYGFWYDYWGQGTQVTVSS,high polyreactivity
2,QVQLVESGGGLVQAGGSLRLSCAASGSTFLDYAMGWYRQAPGNERELVAAISPDDSSTYYADSVKARFTISRDKAKNTVSLHMTSLKPEDTAVYYFAADDRDWVNYDYWGQGTQVTVSS,low polyreactivity
3,QVQLVESGGGLVQAGGSLRLSCAASGSTFLDYDMGWYRQAPGKERELVATINSVGSTYYADSVKGRFTISRDNAKNTVYLQMKSLKPEDTAVYYCAASQEPGWYPDVWWEYDYWGQGTQVTVSS,low polyreactivity
4,QVQLVESGGGLVQAGGSLRLSCAASGSTFLGNAMGWYRQAPGKERELVAGITSGGTTNYADSVKGRFTISRDNAKNTVYLQMNSLKPEDTAVYYCNADVWIGQRFDPGYDFDYWGQGTQVTVSS,low polyreactivity
5,QVQLVESGGGLVQAGGSLRLSCAASGSTFLGYAMGWSRQAPGKERELVAAINLSTSGTYYADSVKGRFTISRDNAKNTVYLQMNSLKPEDTAVYYCAAAYSNINYYYQYYYWGQGTQVTVSS,low polyreactivity
6,QVQLVESGGGLVQAGGSLRLSCAASGSTFLHYAMGWYRQAPGKERELVAAISFSGVRTYYADSVKGRFTISRDNAKNTVYLQMNSLKPEDTAVYYCAADGHHADYDYWGQGTQVTVSS,low polyreactivity
7,QVQLVESGGGLVQAGGSLRLSCAASGSTFLHYAMGWYRQAPGKERELVATITSGDSTSYADSVKGRFTISRDNAKNTVYLQMNSLKPEDTAVYYCTANRVHRSASPYDYWGQGTQVTVSS,low polyreactivity
8,QVQLVESGGGLVQAGGSLRLSCAASGSTFLINAMGWYRQAPGKERELVAAISRDGSTNYADSVKGRFTISRDNAKNTVYLQMNSLKPEDTAVYYCAAVPGISVGRQPGYDYDYWGQGTQVTVSS,low polyreactivity
9,QVQLVESGGGLVQAGGSLRLSCAASGSTFLLNAMGWYRPAPGKERELVAAITWTGGSTYYADSVKGRFTISRDNAKNTVYLQMNILKPEDTAVYYCAAEHYEYWRELVTSEYDYWGKGTQVTVSS,low polyreactivity
10,QVQLVESGGGLVQAGGSLRLSCAASGSTFLNYAMGWYRQAPGKERELVAAISFSGGRTYYADSVKGRFTISRDNAKNTVFLQMNSLKPEDTAVYYCAARGSYAYYRGQGTQVTVSS,high polyreactivity
11,QVQLVESGGGLVQAGGSLRLSCAASGSTFLNYAMGWYRQAPGKERELVASISYSAGSTYYADSVKGRFTISRDNAKNTVYLQMNSLKPEDTAVYYCAARLARAGYWRRNYYYWGQGTQVTVSS,high polyreactivity
12,QVQLVESGGGLVQAGGSLRLSCAASGSTFLPNAMGWYRQAPGKERELVARISYSGGNTYYADSVKGRFTISRDNAKNTVYLQMNSLKPEDTAVYYCAAVGWYHDYYWGQGTQVTVSS,high polyreactivity
13,QVQLVESGGGLVQAGGSLRLSCAASGSTFLPNAMGWYRQPPGKERELVAAITNSGGNTYADSVKGRFTISRDNAKNTVYLQMNSLKPEDTAVYYCNARFSPTGWARGNDYWGQGTQVTVSS,low polyreactivity
14,QVQLVESGGGLVQAGGSLRLSCAASGSTFLPYALGWYRQAPGKERELVAAIDWNGGRTYYADSVKGRFTISRDNAKNTVYLQMNSLKPEDTAVYYCAKLGRAAQGNYYWGQGTQVTVSS,high polyreactivity
15,QVQLVESGGGLVQAGGSLRLSCAASGSTFLPYVMGWYRQATGKERELVAAISRSGGRTYYADSVKGRFTISRDKAKNTVYLQMNRLKPEDTAVYYCNAVQRFYADYQPFAYWGQGTQLTVSS,high polyreactivity
16,QVQLVESGGGLVQAGGSLRLSCAASGSTFLRNAMGWYREAPGKERELVAAISTRGGSTYYADSVKGRFTISRDNAKNTVNLQMNSLKPEDTADYYCAAVATRRYDYWGQGTQVTVSS,high polyreactivity
17,QVQLVESGGGLVQAGGSLRLSCAASGSTFLRNAMGWYRQAPGKERELVATISRTGGTTYYADSVKGRFTISRDNAKTTVYLQMNSLKPEDTAVYYCAAYSKYGQHYDYWGQGTQVTVSS,high polyreactivity
18,QVQLVESGGGLVQAGGSLRLSCAASGSTFLRNAMGWYRQAPGKQGSWVATISYDGDSTYYADSVTGRFTISRDNAKNTVYLQMNSLKPDDPAVYYCAASYSQTFWDKDDYWGQGTQVTVSS,low polyreactivity
19,QVQLVESGGGLVQAGGSLRLSCAASGSTFLRNVMGWYRQAPGKESELVAAISSRGGSTHYADSVKGRFTISRDNAKNSVYLQMNILKPEDTAVYYCNAERSAAQYVRAAYDYWGQGTQVTVSS,low polyreactivity
20,QVQLVESGGGLVQAGGSLRLSCAASGSTFLRYAMGWYRQAPGKERELVAAINLSGDRTYYADSVKGRFTISRDNAKNTDYVQMNSLKPEDTAVYYCAARWWGPSYDAYDYWVQGTQVTVSS,low polyreactivity
21,QVQLVESGGGLVQAGGSLRLSCAASGSTFLRYAMGWYRQAPGKERELVAAITASGGSTYYADSVKGRFTISRDNAKNTVYLEMNSLKPEDTAVYYCAADGRYIGKNSHDLWIYGYYYWGQGTQVTVSS,low polyreactivity
